In the RNAGym collection of RNA variant scans (doi:10.1073/pnas.2313332121):

B1: TPR t1 (parent)
chain: GACCAAUCUGCCCUCAGAGCUCGAGAACAUCUUCGGAUGCAGAGGAGGCAGGCUUCGGUGGCGCGAUAGCGCCAACGUCCUCAACCUCCAAUGCAUCCCACCACAUGAUGAUGCCUGAAGAGCCUUGGUUUUUUG

Variants of: B1
Experiment: polymerase ribozyme fitness, log enrichment relative to wild type (log ratio); higher = more active; in vitro selection for triplet polymerase activity
Method in brief: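 Mutant libraries for each subunit of a heterodimeric triplet polymerase ribozyme were made by PCR and then transcribed. Each library underwent one round of in vitro selection in triplicate: annealing with a biotinylated primer, the partner subunit and triplets, frozen incubation at −7 °C, gel excision of extended constructs, streptavidin-bead capture and RT-PCR. Input and output libraries were Illumina-sequenced, and only genotypes with ≥10 input reads and ≥1 read per output were kept. Fitness is the logarithm, base 2, of genotype enrichment over wild-type enrichment, computed from inverse-variance-weighted replicate averages.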

| Variant | polymerase ribozyme fitness (log ratio) |
| --- | --- |
| C56U G69U C79U G120A U130G | -1.59 |
| U54G C80A C88A | -4.43 |
| C56A C115U | -1.67 |
| C56G C72U C88U U106A U133A | -1.24 |
| G58A C123G | 2.11 |
| C56A A83G G135U | -2.3 |
| G58A G60C G120C | -3.34 |
| C56A U59C U87C U112A | 0.408 |
| U55G C56U A95U | -1.91 |
| G57U C82G A95G A111U C123U | -5.66 |
| G57U G60C | -3.3 |
| C56G G69C U87C G110A | -5.42 |
| C56A G69A | -3.3 |
| U54G A95C U133A | -1.48 |
| C56A A119U | -1.36 |
| U54C C56A C64A C85G G117A | -7.73 |
| U55G C56G | -1.53 |
| U55G C56A | -0.837 |
| C56A C72U G93U | -1.63 |
| G57U C79A G93C U112G | -2.9 |
| C56U G61C | -6.29 |
| U55A C85U | -1.1 |
| C56G C70U U96G C101U A111U | -5.15 |
| C56U C70U C82G C124A U130C | 0.377 |

| Variant | polymerase ribozyme fitness (log ratio) |
| --- | --- |
| C56U C94A A105G | -3.08 |
| C56U C97U A108G U116C U133G | -3.98 |
| C56G A68G C73U A95G | -3.3 |
| U55A G63C C72U G77C C104A | -5.29 |
| C56A C76A G120U | -1.15 |
| C56A G58C C62U C101A C104U | -1.18 |
| U54C G60U G69U U133G | -2.67 |
| C56A C70U | -0.609 |
| C56A C70G | -3.6 |
| U54G C101U U106A U116G | -3.87 |
| U54C C115U G127C | -1.97 |
| C56U A84G A91U C98A C99A G120U | -7.08 |
| C56A U96A | -1.63 |
| G57C A90G G113U C115A | -5.11 |
| C56G A68G | -3.1 |
| G57U G93A | 0.0639 |
| C56A G120C | 0.484 |
| G57A U81A C104U | -1.98 |
| C56G U133A | -0.615 |
| C56U C72A G77A C97A | -3.63 |
| U54C U109A G120C | -5.52 |
| U55G C89G | -1.51 |
| U54G G57C | -1.44 |
| U54C A84G C88A C98U | -1.69 |

| Variant | polymerase ribozyme fitness (log ratio) |
| --- | --- |
| C56A G61C C62U C72G C89U | -0.49 |
| U54C U106A C124U | 2.23 |
| C56A U112G | -0.994 |
| C56G C72U C124U | -0.654 |
| C56A C89U C102U G113U | -6.7 |
| C56A C72G | -0.848 |
| C56A C123A | 0.85 |
| G57C C62G C104A | -5.81 |
| C56A U129G | -2.29 |
| G57A C114U | -3.27 |
| C56U G69C G71A C79A G113U | -6.83 |
| C56U G61A U112G A121U | -6.37 |
| C56G C62U U106A G110U | -0.758 |
| C56A G58C C114U | -2.47 |
| C56G G57U G63U | -3.14 |
| G58A G77U U81A U87C C102A | -4.48 |
| C56A C104A A105U G110A | -7.24 |
| C56G U132C | -0.811 |
| C56A U112A G120A G135U | -2.22 |
| G58A G135U | -1.49 |
| C56U U131A | -0.176 |
| C56G C89A | -2.22 |
| G57U G60A C114A U129A | -3.12 |
| C56U C85G A91U C101U U106C | -4.05 |

| Variant | polymerase ribozyme fitness (log ratio) |
| --- | --- |
| U55A C79U C97U C115U G127C | -3.52 |
| C56A A100G C102U U112C G127C | -2.2 |
| G57A C123U | -0.636 |
| G58A U92A | -2.93 |
| C56G G63C C114G | -5.3 |
| U54G U55A G93C C115G | -5.45 |
| C56U G69A G113U C123G U130G | -6.22 |
| C56U G93A | -0.279 |
| C56U G93C | -0.768 |
| C56A C79A | -1.77 |
| U54C G58A G69C A84U | -1.08 |
| G57A G61A A90G C124A | 0.849 |
| G57A G63U A75U U133A | -1.97 |
| C56A C76A C88A C115U | -3.94 |
| G58A G61A C85A G113A | 0.19 |
| C56U C89A U92C G117U | -5.23 |
| C56A U87G G113U | -3.92 |
| C56U C123A U126A | 0.177 |
| G58C A90U U109A C114U | -5.55 |
| C56A C89U | -1 |
| C56A G63C C102A | -4.29 |
| C56G G63A | -2.75 |
| C56U U81G C97U | -1.35 |
| U55G G93A G117U | -3.04 |

| Variant | polymerase ribozyme fitness (log ratio) |
| --- | --- |
| C56U G61U C82A A91G C114U | -6.55 |
| U54G C85U U116G | -3.02 |
| C56U C73U C76U | -2.54 |
| C56G G63C C115A | -2.19 |
| U55A U87A G122A | -0.825 |
| C56U G117U | -1.63 |
| G57U G110A G127A | -2.29 |
| C56U A90U | -0.55 |
| U54C C56U C82A U96A | -1.95 |
| C56G C114A | -2 |
| C56U G128U | -1.65 |
| U54G G107U | -5.37 |
| C56A G60A C101A | -1.49 |
| C56G G60U | -1.44 |
| C56U G113A | -0.858 |
| C56G A121U | 1.73 |
| G57C G69C U131A | -0.151 |
| G57U U116A | -3.39 |
| C56G C101U G120A | -0.227 |
| U54A C94A | -1.16 |
| C56G C64A U106C C114U | -6.98 |
| G57C U59A | -0.128 |
| C56U U125A | -0.748 |
| G57C C89A G117U A118G U130C G135U | -2.49 |

| Variant | polymerase ribozyme fitness (log ratio) |
| --- | --- |
| G58C A91U | -2.24 |
| C56A A66G A75G | -0.927 |
| U54C C86G U112G G120C | -1.16 |
| U55G G61U C123A | 1.22 |
| U54G C56G C72A G93A | -4.53 |
| G58A G69A | -2.24 |
| G57C C82G A95G A111U C123U | -5.52 |
| U55G C70G A100C | -3.29 |
| U55A A111U | -2.8 |
| C56U A100C | -1.29 |
| C56A C99U | -2.82 |
| C56U U116G | -2.23 |
| C56U U116A | -2.51 |
| U54C U87A A95U U130A | -2.56 |
| C56G G77U C115G | -3.16 |
| C56U A105U G122A | -2.96 |
| C56G C88U | -0.184 |
| C56A C88U C101U U106G C123A | -1.58 |
| U54G G61A C80A G120U | -5.8 |
| G57A A100U | -1.61 |
| U55G G63A U81C | -3.9 |
| C56U G65A A83U | -6.42 |
| C56U C79G C102U C104U | -4.64 |
| C56G G93A C115A C123U G128U | -4.6 |

| Variant | polymerase ribozyme fitness (log ratio) |
| --- | --- |
| C56A C62U C114U | -2.3 |
| U54G C62G | -5.55 |
| C56A C64G | -5.92 |
| G57U U78A G117A G135U | -2.21 |
| C56U U92C U106A | -0.561 |
| G57U G63C | -1.73 |
| C56U U78C U87A | 0.212 |
| C56A C101G | -1.76 |
| C56G C73U | -0.89 |
| C56A G63A G93A A100C C124U | -4.2 |
| C56A C104G A118G C124G | -5.79 |
| G57A G69A C76G | -3.53 |
| U55C C72A U78C C79U A121G | 2.46 |
| C56U C88A G127C | -1.72 |
| G57A C82U A105G G120U | -4.95 |
| U54A G71U U126G | -2.06 |
| U55A C73U C86G C99U | -4.02 |
| G57C C73A G117C | -4.45 |
| C56A C62A C79A | -6.19 |
| C56U A95C | -1.26 |
| C56U A95G | 0.263 |
| U54G G71U A74U G113C A121U | -7.2 |
| C56G U112G | 0.023 |
